The values that follow come from PMC5693851.

Conditions in all cases: glycan lost; control: wild type
Data set [1] in a line: non-reducing western blot of recipient cell lysates. Background: Immunoblotting shows a protein as a band on a membrane.
Data set [2] in a line: fluorogenic substrate assays, lysates of transfected or conditioned HeLa.
Data set [3] is described as follows: non-reducing western blot of culture medium.
Data set [4] in a line: immunofluorescence, endo/lysosomal (LAMP-1) vs Golgin-97 colocalisation.
Data set [5] is described as follows: conditioned medium, western blot of recipient cell lysates.
The nature of data set [6]: non-reducing western blot of culture medium, HeLa/Hek293.

B1: cystatin F: N6162SN115Q (protein)
parent chain: MRAAGTLLAFCCLVLSTTGGPSPDTCSQDLNSRVKPGFPKTIKTNDPGVLQAARYSVEKFNNCTNDMFLFKESRITRALVQIVKGLKYMLEVEIGRTTCKKNQHLRLDDCDFQTNHTLKQTLSCYSEVWVVPWLQHFEVPVLRCH
Consider B1, for which the “other: proteolytic processing (dimer to monomer conversion)” value in data set [1] is recorded as “abolishes”. Moreover, the “other: inhibition of intracellular peptidases” value in data set [2] is “abolishes”. The oligomerisation result in data set [3] is recorded as “no change”. In addition, the localisation_or_trafficking entry in data set [4] is on record as “decreases”. In addition, in data set [5], the “other: uptake by recipient cells” value is “decreases”. In data set [6], the expression_or_secretion entry is on record as “no change”.

B2: cystatin F: N6162S (protein)
parent chain: MRAAGTLLAFCCLVLSTTGGPSPDTCSQDLNSRVKPGFPKTIKTNDPGVLQAARYSVEKFNNCTNDMFLFKESRITRALVQIVKGLKYMLEVEIGRTTCKKNQHLRLDDCDFQTNHTLKQTLSCYSEVWVVPWLQHFEVPVLRCH
In the case of B2, the “other: proteolytic processing (dimer to monomer conversion)” value in data set [1] is listed as “decreases”. Besides, the “other: inhibition of intracellular peptidases” value in data set [2] is given as “decreases”. The oligomerisation entry in data set [3] was “no change”. Also, the localisation_or_trafficking entry in data set [4] was “decreases”. The “other: uptake by recipient cells” value in data set [5] is on record as “decreases”. In addition, the expression_or_secretion result in data set [6] is “no change”.
